The labels stand for the following.
T1: FZD6 CRD (Homo sapiens, UniProt O60353)
T1 construct: S20-P146; GPI anchor signal (C); expressed in transfected cells; host or cells: CHO cells, lentiviral pLenti-puro
T1 sequence (O60353 20-146): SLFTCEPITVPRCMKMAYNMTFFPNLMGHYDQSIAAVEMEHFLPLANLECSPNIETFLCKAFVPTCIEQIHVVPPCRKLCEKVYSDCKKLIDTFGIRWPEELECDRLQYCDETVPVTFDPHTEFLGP

T2: FZD9 CRD (Homo sapiens, UniProt O00144)
T2 construct: G35-A161; GPI anchor signal (C); expressed in transfected cells; host or cells: CHO cells, lentiviral pLenti-puro
T2 sequence (O00144 35-161): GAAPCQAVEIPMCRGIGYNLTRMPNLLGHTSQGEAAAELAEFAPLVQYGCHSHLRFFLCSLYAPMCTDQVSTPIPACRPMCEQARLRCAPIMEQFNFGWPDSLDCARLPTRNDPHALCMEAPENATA

T3: FZD8 CRD (Homo sapiens, UniProt Q9H461)
T3 construct: K31-D155; GPI anchor signal (C); expressed in transfected cells; host or cells: CHO cells, lentiviral pLenti-puro
T3 sequence (Q9H461 31-155): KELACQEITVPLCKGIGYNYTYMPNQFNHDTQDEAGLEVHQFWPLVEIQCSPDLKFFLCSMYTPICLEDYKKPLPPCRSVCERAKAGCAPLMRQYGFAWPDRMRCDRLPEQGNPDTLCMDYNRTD

T4: FZD10 CRD (Homo sapiens, UniProt Q9ULW2)
T4 construct: 30-156; GPI anchor signal (C); expressed in transfected cells; host or cells: CHO cells, lentiviral pLenti-puro
T4 sequence (Q9ULW2 30-156): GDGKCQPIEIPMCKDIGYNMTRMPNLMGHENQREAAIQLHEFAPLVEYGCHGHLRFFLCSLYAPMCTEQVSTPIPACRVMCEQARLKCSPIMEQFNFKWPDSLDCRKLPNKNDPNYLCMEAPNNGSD

B1: Fab-2907: anti-FZD5 Fab with antibody variable region Fv-2907; CDR SEQ ID NOs: 35, 36, 46, 85, 122, 159 (antibody, V domains shown)
VH: EVQLVESGGGLVQPGGSLRLSCAASGFNIYSSYMHWVRQAPGKGLEWVASISSYSGSTYYADSVKGRFTISADTSKNTAYLQMNSLRAEDTAVYYCARSSWGAYIVSYGFDYWGQGTLVTVSS
VL: DIQMTQSPSSLSASVGDRVTITCRASQSVSSAVAWYQQKPGKAPKLLIYSASSLYSGVPSRFSGSRSGTDFTLTISSLQPEDFATYYCQQVGYWWGLITFGQGTKVEIK
B2: Fab-2905: anti-FZD5 Fab with antibody variable region Fv-2905; CDR SEQ ID NOs: 35, 36, 44, 83, 120, 157 (antibody, V domains shown)
VH: EVQLVESGGGLVQPGGSLRLSCAASGFNLSYYYMHWVRQAPGKGLEWVASIYSSYSYTSYADSVKGRFTISADTSKNTAYLQMNSLRAEDTAVYYCARSGYALDYWGQGTLVTVSS
VL: DIQMTQSPSSLSASVGDRVTITCRASQSVSSAVAWYQQKPGKAPKLLIYSASSLYSGVPSRFSGSRSGTDFTLTISSLQPEDFATYYCQQSSWYYGYPFTFGQGTKVEIK
B3: Fab-2906: anti-FZD5 Fab with antibody variable region Fv-2906; CDR SEQ ID NOs: 35, 36, 45, 84, 121, 158 (antibody, V domains shown)
VH: EVQLVESGGGLVQPGGSLRLSCAASGFNFSSSSIHWVRQAPGKGLEWVAYISSSYGYTYYADSVKGRFTISADTSKNTAYLQMNSLRAEDTAVYYCARTVRGSKKPYFSGWAMDYWGQGTLVTVSS
VL: DIQMTQSPSSLSASVGDRVTITCRASQSVSSAVAWYQQKPGKAPKLLIYSASSLYSGVPSRFSGSRSGTDFTLTISSLQPEDFATYYCQQWSWGFLITFGQGTKVEIK
B4: Fab-2909: anti-FZD5 Fab with antibody variable region Fv-2909; CDR SEQ ID NOs: 35, 36, 48, 87, 124, 161 (antibody, V domains shown)
VH: B3 VH with F29I, S33Y, I34M, Y50S, Y55S, Y59S
VL: B1 VL with V91S, G92W, Y93S, W94Y, W95H, G96Y

Data on 4 molecules can be found in patent US20210253718A1, “FRIZZLED5 PROTEIN-BINDING AGENTS” (Modmab Therapeutics Corporation, priority 2016, published 2021).

Positions count from the first letter of the chain named.

The target in the first assay is T1, FZD6 CRD. In words: Immunofluorescence of anti-FZD5 Fab binding to CHO cells overexpressing Frizzled CRD. More on the design: key: −: no binding; +: very weak binder; ++: weak binder; +++: good binder; ++++: very good binder.
Conditions: not given
Here is the method:
(§1) Plasmids: pLCKO lentiviral vector used for knockout (TKO) library construction and expression of individual gRNAs was constructed as described previously (Hart et al., 2015). Briefly, single guide RNA (sgRNA) scaffold was amplified from px330 (Addgene 42230) and cloned into pLKO.TRC005 lentiviral vector (Broad Institute, Cambridge, Mass.) using AgeI/EcoRI restriction sites. BfuAI sites were added at the 5′ end of the sgRNA scaffold for cloning the TKO library or individual gRNA target sequences. Lenti Cas9-2A-BsdR vector used to generate Cas9 stable expression cell lines was constructed as described previously (Hart et al., 2015). Briefly, lentiCRISPR pXPR_001 (Addgene 49535) was modified through removal of the sgRNA scaffold region through NdeI/EcoRI digest and blunt ends generation using Large Klenow Fragment (NEB). 2A-puro was replaced with 2A-BsdR by PCR using the NheI/MluI sites. Each of the 10 human Frizzled cysteine rich domains (CRDs) were cloned into the lentiviral expression plasmid pLenti-puro in the following cassette: FZD_CRD-MYC-GPI.
(§2) To confirm that the FZD5-WNT7B circuit is not driven simply by expression and rule out the possibility of a disconnect between RNA and protein levels for the Wnt receptors in HPAF-II cells, a panel of recombinant Fabs were generated, alternatively referred to herein as ‘Frizzled profiler’, that can detect and discriminate all but one of the ten Frizzled receptors. […] To characterize the binding specificity of these Fabs on cells, a panel of 10 CHO cell lines was generated, each expressing the CRD domain of a different myc-tagged Frizzled family member anchored at the plasma membrane through a GPI anchor (CHO-myc-FZDGPI). Despite the high sequence identity between Frizzled family members (FIG. 7A, FIG. 7B), selective Fabs were identified for FZD4, FZD5, FZD6 and FZD10 as assessed by immunofluorescence and flow cytometry (FIG. 7D and FIG. 8). […] The FZD8 CRD is most homologous to that of FZD5 (FIG. 7B). These Fabs can be used to discriminate expression of FZD1, FZD2, FZD4, FZD5, FZD6, FZD7, FZD8, FZD9 and FZD10 (FIG. 7D and FIG. 8). The ‘Frizzled profiler’ therefore consists of 10 different Fabs that can be used to discriminate expression of 9 different Frizzled family members. The Frizzled profiler was then used to confirm that HPAF-II cells express FZD1, FZD5, FZD6 and possibly FZD8 (FIG. 7E).
(§3) The binding of anti-FZD5 Fabs to cell surface-expressed Frizzled protein was further determined for each member of the Frizzled family via flow cytometry and immunofluorescence analysis of a panel of 10 CHO cell lines, each ectopically over-expressing the extracellular cysteine-rich domain (CRD) of a different Frizzled protein family member.
As for B1, the “Immunofluorescence binding, Frizzled CRD overexpressed on CHO cells: FZD6” value is on record as “−”.
Same read-out and setting: the entry for B2 is “−”; for B3 it is “−”.
The same measure, in the same setting: the value for B4 was “−”.

The next assay addresses T2, FZD9 CRD. The assay is described as above.
Conditions: not given
Also noted: key: −: no binding; +: very weak binder; ++: weak binder; +++: good binder; ++++: very good binder. On the procedure:
as §1, §2, §3
In the case of B1, the “Immunofluorescence binding, Frizzled CRD overexpressed on CHO cells: FZD9” value is given as “−”.
The same measure, in the same setting: the entry for B2 is “−”.
Consider B3, for which the “Immunofluorescence binding, Frizzled CRD overexpressed on CHO cells: FZD9” value was “−”.
The same measure, in the same setting: the value for B4 was “−”.

The next assay has as its target T5, FZD2 CRD (Homo sapiens, UniProt Q14332).
T5 construct: D35-P161; GPI anchor signal (C); expressed in transfected cells; host or cells: CHO cells, lentiviral pLenti-puro
The description is as above. Also noted: key: −: no binding; +: very weak binder; ++: weak binder; +++: good binder; ++++: very good binder.
Conditions: not given
On the procedure: as §1, §2, §3
On to B1, for which the “Immunofluorescence binding, Frizzled CRD overexpressed on CHO cells: FZD2” value (from here on “Immunofluorescence binding … FZD2”) is given as “−”.
As to B2, the “Immunofluorescence binding … FZD2” value is “−”.
As for B3, the “Immunofluorescence binding … FZD2” value is given as “−”.
On to B4, for which the “Immunofluorescence binding … FZD2” value is given as “−”.

The target in a further assay is T3, FZD8 CRD. Described as above. More on the design: key: −: no binding; +: very weak binder; ++: weak binder; +++: good binder; ++++: very good binder.
Conditions: not given
Here is the method:
as §1, §2, §3
As for B1, the “Immunofluorescence binding, Frizzled CRD overexpressed on CHO cells: FZD8” value is on record as “+”.
The same measure, in the same setting: the entry for B2 is “−”.
With B3, the “Immunofluorescence binding, Frizzled CRD overexpressed on CHO cells: FZD8” value is reported as “+”.
Same read-out and setting: the value for B4 was “−”.

In a further assay the target is T4, FZD10 CRD. The description is as above. Also noted: key: −: no binding; +: very weak binder; ++: weak binder; +++: good binder; ++++: very good binder.
Conditions: not given
Here is the method:
as §1, §2, §3
Turning to B1, the “Immunofluorescence binding, Frizzled CRD overexpressed on CHO cells: FZD10” value is given as “−”.
Turning to B2, the “Immunofluorescence binding, Frizzled CRD overexpressed on CHO cells: FZD10” value was “−”.
The same measure, in the same setting: the entry for B3 is “+++”; for B4 it is “−”.

For another assay, the system named is ASPC-1 cells. The assay can be described thus: Effect of anti-FZD5 Fabs on proliferation of pancreatic cancer cell lines (percent growth inhibition). It is filed as cell-based, human. To be noted: Fab 2 μg/ml.
For B1, the “percent growth inhibition, ASPC-1 2 μg/ml” value was found to be 10.02%.
The same measure, in the same setting: the value for B2 was −14.51%; that for B3 was 20.56%.
Still for that read-out and setting: the value for B4 was −6.84%.

The next assay concerns PATU8988S cells. The description is as above. Format: cell-based, human. Conditions: Fab 2 μg/ml.
Turning to B1, the “percent growth inhibition, PATU8988s 2 μg/ml” value is given as −12.76%.
For B2, the “percent growth inhibition, PATU8988s 2 μg/ml” value is −26.66%.
The same measure, in the same setting: the value for B3 was −17.42%.
On the same count and under the same terms, the figure for B4 is −9.95%.

For another assay, the system named is RWP1 cells. The description is as above. It is filed as cell-based, human. Conditions: Fab 2 μg/ml.
With B1, the “percent growth inhibition, RWP1 2 μg/ml” value is listed as 8.52%.
On the same count and under the same terms, the figure for B2 is 62.88%.
The same measure, in the same setting: the figure for B3 is 1.19%; for B4 it is 12.89%.

In another assay the test system is ASPC-1 cells. The description is as above. Format: cell-based, human. To be noted: Fab 10 μg/ml. Here is the method: (§4) The effect of presently disclosed anti-FZD5 Fabs on proliferation of RNF43 loss-of-function mutant pancreatic cancer cell lines HPAFII, PATU8988S and ASPC-1; and on pancreatic cancer cell line RWP1, was tested at […] and 10 μg/ml.
For B1, the “percent growth inhibition, ASPC-1 10 μg/ml” value was 23.78%.
Regarding B2, the “percent growth inhibition, ASPC-1 10 μg/ml” value is −10.34%.
On the same count and under the same terms, the value for B3 was 35.20%; that for B4 was −9.30%.

The next assay concerns HPAFII cells. The assay is described as above. Format: cell-based, human. To be noted: Fab 2 μg/ml. Here is the method: as §4
Consider B1, for which the “percent growth inhibition, HPAFII 2 μg/ml” value is given as 15.15%.
Still for that read-out and setting: the figure for B2 is 0.41%.
The same measure, in the same setting: the value for B3 was 15.24%.
Still for that read-out and setting: the value for B4 was 2.87%.

Still in this assay, the particulars now being: Fab 10 μg/ml.
Take B1: the “percent growth inhibition, HPAFII 10 μg/ml” value was determined as 14.20%.
Consider B2, for which the “percent growth inhibition, HPAFII 10 μg/ml” value is given as −12.83%.
For B3, the “percent growth inhibition, HPAFII 10 μg/ml” value was determined as 14.98%.
As to B4, the “percent growth inhibition, HPAFII 10 μg/ml” value is on record as −2.57%.

Another assay relates to RWP1 cells. The assay is described as above. To be noted: Fab 10 μg/ml. It is filed as cell-based, human. Here is the method: as §4
Consider B1, for which the “percent growth inhibition, RWP1 10 μg/ml” value turned out to be 28.57%.
As to B2, the “percent growth inhibition, RWP1 10 μg/ml” value is 41.10%.
The same measure, in the same setting: the value for B3 was 5.47%.
The same measure, in the same setting: the figure for B4 is 14.89%.

The next assay has as its system PATU8988S cells. The description is as above. Format: cell-based, human. To be noted: Fab 10 μg/ml. On the procedure: as §4
With B1, the “percent growth inhibition, PATU8988s 10 μg/ml” value is −42.69%.
On the same count and under the same terms, the figure for B2 is −46.23%; for B3 it is −30.04%; for B4 it is −16.04%.
